“Also recorded” adds a separate entry of the source.
Experiments:
[1] = INGRID phase II trial: toxicity graded by NCI-NCIC CTC version 3.0; type: in vivo; details: of 132 delivered courses; fever, chills, arterial hypertension
Description: Treatment side effects were assessed separately for each chemotherapy course and graded according to the NCI-NCIC CTC version 3·0^19. The worst toxicity per organ, per patient was considered. Periodic specialist controls, ECG, troponin levels determination, and echocardiography were performed before every treatment course to exclude cardiac toxicity. The impact of treatment on cognitive functions was not assessed by ad hoc tests.
Duration of response, PFS, OS, and tolerability were the secondary endpoints. Duration of response was defined as the time from the first assessment that documents the response to the date of relapse, date of death from any cause or date of the last visit of follow-up. PFS was defined as the interval between the time of entry onto trial and failure (relapsing or progressive disease), death from any cause or date of the last visit of follow-up. OS was defined as the time from entry onto trial until death from any cause or date of the last visit of follow-up. Tolerability was defined by of grade 3-4 AEs according to NCI CTCAE^19.

[2] = tested on: BBB permeability in lymphomatous lesions and perilesional area; experiment: BBB permeability assessed by DCE-MRI (Ktrans); type: in vivo, human; details: tumoral/peritumoral areas
Description: Variations induced by NGR-hTNF in the BBB permeability at the level of the lymphomatous lesions, areas surrounding the tumor (perilesional area) and in the normal-appearing brain parenchyma were assessed by DCE-MRI. DCE acquisition followed a standard protocol^28 that included also conventional T1, T2, Flair, DWI and Dynamic Susceptibility Contrast Perfusion (DSC) sequences. […] In cases of multiple lesions, the largest one was considered. Post-processing of DCE-MRI was performed using Olea software (La Ciotat, France); all dynamic images were corrected for motion artifacts and co-registered to a volumetric post-contrast T1 sequences. Results were expressed as Ktrans values normalized using contralateral white matter. Ktrans obtained after the 2nd course (measured after NGR-hTNF infusion) were compared with those obtained after the 1st course (without NGR-hTNF) to establish the effect of TNF on BBB permeabilization. Statistically significance was assessed by Wilcoxon matched pairs test.

For “NGR-hTNF: genetically engineered protein consisting of CNGRCG fused to the N-terminus of human tumor necrosis factor alpha (SEQ ID No. 1), expressed in E. coli”, the “TNF Infusion reaction Grade 1-2 (number of courses)” value [1] was “nine” and the “vascular permeability (DCE-MRI, SPECT)” value [2] was “selectively increased vascular permeability in tumoral/peritumoral areas; also recorded: vascular permeability was increased”.

Reference: patent US12285465B2, “Combined treatment of primary central nervous system lymphoma” (FONDAZIONE CENTRO SAN RAFFAELE, priority 2018, dated 2025)
